Data: US20250059258A1

How the values were obtained:
[1] = target: Tremfya Fab with a lambda light chain and binding specificity for IL23 (from the monoclonal antibody guselkumab); assay: BLI (ForteBio), biotinylated ligand on sensor, 1:1 fit
[2] = target: dimeric human IgG-lambda (Southern Biotech, Birmingham AL); assay: as above
[3] = target: Herceptin Fab with a kappa light chain and binding specificity for Her2/neu (from the monoclonal antibody trastuzumab); assay: as above
[4] = target: Dupixent (IgG4 monoclonal antibody); assay: BLI, biotinylated ligand on sensor; 'Binding affinity (nM)'
[5] = target: Praluent (IgG1 monoclonal antibody); assay: as above
[6] = target: Ajovy (IgG2 monoclonal antibody); assay: as above

| Kd [1] [nM] | Kd [2] [nM] | Kd [3] [nM] | Kd [4] [nM] | Kd [5] [nM] | Kd [6] [nM] | Binder |
| --- | --- | --- | --- | --- | --- | --- |
| 18 | < 1 | 32 | – | – | – | affinity ligand SEQ ID NO: 84 (designed binder, biotinylated (AviTag system)) MGGGGSAAAGDEGGRWEGQGAAYAARGDYDRAIEYYERALELDPNNAWAWWDLGVAYAARGDYDRAIEYYERALELDPDDATAWSRLGHAYAARGDYDRAIEYYERALELDPEDETARYLLEHARRARQGQAGQGGGSGLNDIFEAQKIEWHECHHHHHH |
| 8 | < 1 | 28 | – | – | – | affinity ligand SEQ ID NO: 86 (designed binder, biotinylated (AviTag system)) MGGGGSAAAGDEAQRWENQGAAYAARGDYDRAIECYESALELDPNNAWAWWELGVAYAARGDYDRAIEYYERALELDPDDAIAWSRLGHAYAARGDYDRAIEYYERALELDPEDETARYLLEHARRARQGQAGQGGGSGLNDIFEAQKIEWHECHHHHHH |
| 10 | < 1 | 32 | – | – | – | affinity ligand SEQ ID NO: 88 (designed binder, biotinylated (AviTag system)) MGGGGSAAAGDEAQCWENQGAAYAARGDYDRAIEYYERALELDPNNAWAWWELGVAYAARGDYDRAIEYYERALELDPDDATAWSRLGHAYAARGDYDRAIEYYERALELDPEDETARYLLEHARRARQGQAGQGGGSGLNDIFEAQKIEWHECHHHHHH |
| 4 | < 1 | 15 | – | – | – | affinity ligand SEQ ID NO: 93 (designed binder, biotinylated (AviTag system)) MGGGGSAAAGDEAQRWENQGAAYAARGDYDRAIEYYERALELDPNNAWAWWELGVAYAARGDFDRAIEYYERALELDPDDATVWSRLGHAYAARGDYDRAIEYYERALELDPVDETARYLLEHARRARQGQAGQGGGSGLNDIFEAQKIEWHECHHHHHH |
| 10 | < 1 | 84 | – | – | – | affinity ligand SEQ ID NO: 87 (designed binder, biotinylated (AviTag system)) MGGGGSAAAGDEAQHWENQGAAYAARGDYDRAIEYYERALELDPNNAWAWWELGVAYAARGDYDRAIEYYERALELDPDDATVWSRLGHAYAARGDYDRAIEYYERALELDPEDETARYLLEHARRARQGQAGQGGGSGLNDIFEAQKIEWHECHHHHHH |
| 11 | < 1 | 46 | – | – | – | affinity ligand SEQ ID NO: 91 (designed binder, biotinylated (AviTag system)) MGGGGSAAAGDEAQRWENQGAAYAARGDYDRAIEYYGRALELDPNNAWAWWELGVAYAARGDYDRAIEYYERALELDPDDATAWSRLGHAYAARGDYDRAIEYYERALELDPENETARYLLEHARRARQGQAGQGGGSGLNDIFEAQKIEWHECHHHHHH |
| 4 | < 1 | 7 | – | – | – | affinity ligand SEQ ID NO: 80 (designed binder, biotinylated (AviTag system)) MGGGGSAAAGDEADRWAALGAAYAARGDYDRAIEYYQRALELDPNNAWAWWDLGVAYAARGDYDRAIEYYERALELDPDDAHAWFRLGWAYAARGDYDRAIEYYERALELDPEDETARDVLEGARRARQGQAGQGGGSGLNDIFEAQKIEWHECHHHHHH |
| – | – | – | 82 | < 1 | – | affinity ligand SEQ ID NO: 164 (designed binder, biotinylated (AviTag system)) MGDEAERWYDLGAAYAARGDYDRAIEYYQRALELDPNDAWAWWELGVAYAARGDYDRAIEYYQRALELDLNNAVAWARLGIAYAARGDYDRAIEYYQRALELDPNNEVARDALEYARRARRC |
| – | – | – | 13 | < 1 | – | affinity ligand SEQ ID NO: 163 (designed binder, biotinylated (AviTag system)) MGHHHHHHDEAERWYDLGAAYAARGDYDRAIEYYQRALELDPNDAWAWWELGVAYAARGDYDRAIEYYQRALELDLNNAVAWARLGIAYAARGDYDRAIEYYQRALELDPNNEVARDALEYARRARRAPKC |
| – | – | – | 13 | < 1 | 92 | affinity ligand SEQ ID NO: 154 (designed binder, biotinylated (AviTag system)) MGDEAERWYDLGAAYAARGDYDRAIEYYQRALELDPNDAWAWWELGVAYAARGDYDRAIEYYQRALELDPNNAVAWARLGIAYAARGDYDRAIEYYQRALELDPNNEVARDALEYARRARRCHHHHHH |
| – | – | – | 28 | < 1 | – | affinity ligand SEQ ID NO: 170 (designed binder, biotinylated (AviTag system)) MGDEADRWYDQGAAYAARGDYDRAIEYYERALELDPNDAWAWWELGVAYAARGDYDRAIEYYQRALELDPNDAVAWARLGHAYAARGDYDRAIEYYQRALELDPNNEAARSNLEYARRAAACGLNDIFEAQKIEWHEHHHHHH |
| – | – | – | 215 | < 1 | – | affinity ligand SEQ ID NO: 172 (designed binder, biotinylated (AviTag system)) MGDEADRWYDQGAAYAARGDYDRAIEYYQRALELDPNNAWAWWELGVAYAARGDYDRAIEYYQRALELDPNDAVAWSRLGHAYAARGDYDRAIEHYQRALELDPNNEVARHLLEVARRAAACGLNDIFEAQKIEWHEHHHHHH |
| – | – | – | 95 | < 1 | – | affinity ligand SEQ ID NO: 173 (designed binder, biotinylated (AviTag system)) MGDEADRWYDQGAAYAARGDYDRAIEYYQRALELDPNNAWAWWELGVAYAARGDYDRAIEYYQRALELDPNDAVAWSRLGHAYAARGDYDRAIEYYQRALELDPNNEVARHLLEVARRAAACGLNDIFEAQKIEWHEHHHHHH |
| – | – | – | 221 | < 1 | – | affinity ligand SEQ ID NO: 174 (designed binder, biotinylated (AviTag system)) MGDEADRWYDQGAAYAARGDYDRAIEYYERALELDPNNAWAWWELGVAYAARGDYDRAIEYYQRALELDPNDAVAWARLGHAYAARGDYDRAIEYYQRALELDPNNEAARSNLEYARRAAACGLNDIFEAQKIEWHEHHHHHH |
| – | – | – | 242 | < 1 | – | affinity ligand SEQ ID NO: 171 (designed binder, biotinylated (AviTag system)) MGDEADRWYYQGAAYAARGDYDRAIEYYERALELDPNNAWAWWELGVAYAARGDYDRAIEYYQRALELDPNDAVAWARLGHAYAARGDYDRAIEYYQRALELDPNNEAARSNLEYARRAAACGLNDIFEAQKIEWHEHHHHHH |
| – | – | – | 31 | < 1 | – | affinity ligand SEQ ID NO: 165 (designed binder, biotinylated (AviTag system)) MDEAAHWEVQGAAYAARGDYDRAIEYYERALELDPNNAWAWEHLGWAYAARGDFDRAIEYYERALELDPDDAHAWFRLGFAYAARGDYDRAIEYYERALELDPEDELARAELESARRARQGQAGQGWAEFRQRLAAIRTRLEALGGSEAELAAFEREIAAFESELQAYAGAGNPEVEALRREAAAIRDELQAYRHNHHHHHHC |
| – | – | – | 120 | < 1 | – | affinity ligand SEQ ID NO: 166 (designed binder, biotinylated (AviTag system)) MDEAARWEVQGAAYAARGDYDRAIEYYERVLELDPNDAWAWEHLGWAYAARGDYDRAIEYYERALEVDPDDAHAWFRLGFAYAARGDYDRAMEYYERALELDPEDELARAELESARRARQGQAGQGWAEFRQRLAAIRTRLEALGGSEAELAAFEREIAAFESELQAYAGAGNPEVEALRREAAAIRDELQAYRHNHHHHHHC |
| – | – | – | 232 | < 1 | – | affinity ligand SEQ ID NO: 168 (designed binder, biotinylated (AviTag system)) MDEVARWEVQGAAYAARGGYDRAIEYYERALELDPNNAWAWEHLGWAYAARGDYDRAIEYYERALELDPDDAHEWFRLGFAYAARGDYDRAIEYYERALELDPEDELARAELESARRARQGQAGQGWAEFRQRLAAIRTRLEALGGSEAELAAFEREIAAFESELQAYAGAGNPEVEALRREAAAIRDELQAYRHNHHHHHHC |
| – | – | – | 31 | < 1 | – | affinity ligand SEQ ID NO: 167 (designed binder, biotinylated (AviTag system)) MDEAARWEVQGAAYAARGDYDRAIEYYERALELDPNNAWAWEHLGWAYAARGDYDRAIEYYERALELDPDDAHSWFRLGFAYAVRGDYDRAIEYYERALELDPEDELARAELESARRARQGQAGQGWAEFRQRLAAIRTRLEALGGSEAELAAFEREIAAFESELQAYAGAGNPEVEALRREAAAIRDELQAYRHNHHHHHHC |
| 28 | < 1 | 67 | – | – | – | affinity ligand SEQ ID NO: 79 (designed binder, biotinylated (AviTag system)) MGGGGSAAAGDEADRWADLGAAYAARGDYDRAIEYYQRALELDPNNAWAWWDLGVAYAARGDYDRAIEYYQRALELDPNNAVAWRRLGHAYAARGDYDRAIEYYQRALELDPNNELAREQLERARRARHGQAGQGGGSGLNDIFEAQKIEWHECHHHHHH |
| 8 | < 1 | 31 | – | – | – | affinity ligand SEQ ID NO: 81 (designed binder, biotinylated (AviTag system)) MGGGGSAAAGDEAERWYDLGAAYAARGDYDRAIEYYQRALELDPNNAWAWWELGVAYAARGDYDRAIEYYQRALELDPNNAVAWRRLGIAYAARGDYDRAIEYYQRALELDPNNEVARDALEYARRARRGQAGQGGGSGLNDIFEAQKIEWHECHHHHHH |
| 26 | < 1 | 53 | – | – | – | affinity ligand SEQ ID NO: 85 (designed binder, biotinylated (AviTag system)) MGGGGSAAAGDEAERWDYLGAAYAARGDYDRAIEYYQRALELDPNNAWAWWDLGLAYAARGDYDRAIEYYQRALELDPNNAVAWFRLGWAYAARGDYDRAIEYYQRALELDPNNELARSELENARRARRGQAGQGGGSGLNDIFEAQKIEWHECHHHHHH |
| 6 | < 1 | 23 | – | – | – | affinity ligand SEQ ID NO: 82 (designed binder, biotinylated (AviTag system)) MGGGGSAAAGDEAGRWYDLGAAYAARGDYDRAIEYYQRALELDPNNAWAWWELGVAYAARGDYDRAIEYYQRALELDPNNAVAWARLGIAYAARGDYDRAIEYYQRALELDPNNEVARDALEYARRARRGQAGQGGGSGLNDIFEAQKIEWHECHHHHHH |
| 8 | < 1 | 22 | – | – | – | affinity ligand SEQ ID NO: 83 (designed binder, biotinylated (AviTag system)) MGGGGSAAAGDEADRWADLGAAYAARGDYDRAIEYYQRALELDPNNAWAWWDLGVAYAARGDYDRAIEYYQRALELDPNNAVAWRRLGHAYAARGDYDRAIEYYQRALELDPNNELAREQLGRARRARRGQAGQGGGSGLNDIFEAQKIEWHECHHHHHH |
| 3 | < 1 | 14 | – | – | – | affinity ligand SEQ ID NO: 94 (designed binder, biotinylated (AviTag system)) MGGGGSAAAGDEAVRWEIQGAAYAARGDYDRAIEYYERALELDPNNAWAWWELGVAYAARGDYDRAIEYYERALELDPDDAHVWFRLGWAYAVRGDYDRAIEYYERALELDPEDELARRILEDARRARQGQAGQGGGSGLNDIFEAQKIEWHECHHHHHH |
